Variants at the floor of the assay were thinned out.
B1: TPR 5TU (parent)
chain: GGAUCUUCUCGAUCUAACAAAAAAGACAAAUCUGCCACAAAGCUUGAGAGCAUCUUCGGAUGCAGAGGCGGCAGCCUUCGGUGGCGCGAUAGCGCCAACGUUCUCAACUAUGACACGCAAAACGCGUGCUCCGUUGAAUGGAGUUUAUCAUG

Variants of: B1
Assay: polymerase ribozyme fitness, log enrichment relative to wild type (log ratio); higher = more active; in vitro selection for triplet polymerase activity
Summary of the method: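 Mutant libraries were PCR-built and transcribed for each subunit of a heterodimeric triplet polymerase ribozyme and selected for one round in triplicate at −7 °C, frozen, before gel excision of extended constructs and streptavidin-bead capture. Input and output libraries were Illumina-sequenced, keeping genotypes with ≥10 input reads and ≥1 read per output. Fitness is a logarithmic ratio of genotype to wild-type enrichment, in base 2, using inverse-variance-weighted replicate averages.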
In the case of G92A U101G C149U, the “polymerase ribozyme fitness (log ratio)” value is reported as -3.56.
In the case of G92U C99U U144G, the “polymerase ribozyme fitness (log ratio)” value is reported as 0.0398.
For C93A G117U, the “polymerase ribozyme fitness (log ratio)” value was -1.92.
In the case of A91U G141A U144G, the “polymerase ribozyme fitness (log ratio)” value is reported as at most -4.2.
For C93U C116U, the “polymerase ribozyme fitness (log ratio)” value was -0.9.
In the case of G92A U104G A110G, the “polymerase ribozyme fitness (log ratio)” value is reported as -3.8.
With G92U A138C the “polymerase ribozyme fitness (log ratio)” value was -3.95.
For G92A G100C, the “polymerase ribozyme fitness (log ratio)” value was -4.07.
For A91U A113C, the “polymerase ribozyme fitness (log ratio)” value was at most -4.2.
For A91G A113C U127C U146G, the “polymerase ribozyme fitness (log ratio)” value was at most -4.2.
For G92C C132U, the “polymerase ribozyme fitness (log ratio)” value was -1.6.
For C93A G124A, the “polymerase ribozyme fitness (log ratio)” value was -2.59.
With G92U C95A A115G A147C the “polymerase ribozyme fitness (log ratio)” value was at most -4.2.
For G92A U144C A147U, the “polymerase ribozyme fitness (log ratio)” value was -3.46.
In the case of G92A U127A A150U, the “polymerase ribozyme fitness (log ratio)” value is reported as -4.1.
In the case of C93U C95G, the “polymerase ribozyme fitness (log ratio)” value is reported as -2.26.
In the case of G92U G141A, the “polymerase ribozyme fitness (log ratio)” value is reported as -1.81.
For G92U G141C, the “polymerase ribozyme fitness (log ratio)” value was -1.87.
For C93U A137C, the “polymerase ribozyme fitness (log ratio)” value was -4.07.
For C93A U130A, the “polymerase ribozyme fitness (log ratio)” value was at most -4.2.
In the case of C93G A97U U145G, the “polymerase ribozyme fitness (log ratio)” value is reported as at most -4.2.
With C93A A142U the “polymerase ribozyme fitness (log ratio)” value was -3.16.
For C93A A142C, the “polymerase ribozyme fitness (log ratio)” value was -1.78.
In the case of C93A A142G, the “polymerase ribozyme fitness (log ratio)” value is reported as -2.77.
With C93U U135A the “polymerase ribozyme fitness (log ratio)” value was -2.01.
In the case of C93U U135C, the “polymerase ribozyme fitness (log ratio)” value is reported as -2.76.
With C93A U134C the “polymerase ribozyme fitness (log ratio)” value was -1.59.
In the case of G92U A107U, the “polymerase ribozyme fitness (log ratio)” value is reported as -3.2.
In the case of C93U C118U, the “polymerase ribozyme fitness (log ratio)” value is reported as -1.84.
In the case of C93A A106C A120U, the “polymerase ribozyme fitness (log ratio)” value is reported as -2.8.
For G92A C105A, the “polymerase ribozyme fitness (log ratio)” value was -3.36.
With A91C A120G G126A the “polymerase ribozyme fitness (log ratio)” value was at most -4.2.
In the case of C93U G133C, the “polymerase ribozyme fitness (log ratio)” value is reported as -2.76.
For C93G A150G, the “polymerase ribozyme fitness (log ratio)” value was -4.14.
In the case of C93A U102C C105A C125G G143U U144A, the “polymerase ribozyme fitness (log ratio)” value is reported as at most -4.2.
In the case of C93A A97U G128A, the “polymerase ribozyme fitness (log ratio)” value is reported as at most -4.2.
With C93G C108G A142C C149U U151G the “polymerase ribozyme fitness (log ratio)” value was at most -4.2.
In the case of U90C G94U G124A C125U, the “polymerase ribozyme fitness (log ratio)” value is reported as -4.
With A91G G100U A113U A120G C125A U139G the “polymerase ribozyme fitness (log ratio)” value was at most -4.2.
In the case of A91C G112C U146A, the “polymerase ribozyme fitness (log ratio)” value is reported as at most -4.2.
For A91C A107U, the “polymerase ribozyme fitness (log ratio)” value was at most -4.2.
In the case of U90G G100A C116U, the “polymerase ribozyme fitness (log ratio)” value is reported as at most -4.2.
In the case of C93G C96U, the “polymerase ribozyme fitness (log ratio)” value is reported as -3.61.
For A91G U127A, the “polymerase ribozyme fitness (log ratio)” value was at most -4.2.
With G92U C96U A97U A115U A121U the “polymerase ribozyme fitness (log ratio)” value was -2.82.
For C93U A113U A119C G140U, the “polymerase ribozyme fitness (log ratio)” value was -3.82.
For C93U C123G A138C, the “polymerase ribozyme fitness (log ratio)” value was at most -4.2.
In the case of A91G G92U, the “polymerase ribozyme fitness (log ratio)” value is reported as -2.31.
With G92A G141A the “polymerase ribozyme fitness (log ratio)” value was -2.48.
For G92A G141C, the “polymerase ribozyme fitness (log ratio)” value was -3.71.
In the case of G92C C116G, the “polymerase ribozyme fitness (log ratio)” value is reported as -1.52.
With C93A C118U C125A A142G the “polymerase ribozyme fitness (log ratio)” value was at most -4.2.
With G92A G117C the “polymerase ribozyme fitness (log ratio)” value was -2.82.
With C93U C118A C125A U139C the “polymerase ribozyme fitness (log ratio)” value was -4.16.
For C93U C116U C123A, the “polymerase ribozyme fitness (log ratio)” value was -1.16.
In the case of A91G C108U, the “polymerase ribozyme fitness (log ratio)” value is reported as -3.97.
In the case of A91U C118A A142C U144G, the “polymerase ribozyme fitness (log ratio)” value is reported as at most -4.2.
In the case of C93U G141C, the “polymerase ribozyme fitness (log ratio)” value is reported as -1.55.
For C93U G141U, the “polymerase ribozyme fitness (log ratio)” value was -0.142.
For C93U C114A, the “polymerase ribozyme fitness (log ratio)” value was -3.41.
For U90A C95U A121U U127A, the “polymerase ribozyme fitness (log ratio)” value was at most -4.2.
In the case of G92A U127A, the “polymerase ribozyme fitness (log ratio)” value is reported as -3.83.
With G92A U127G the “polymerase ribozyme fitness (log ratio)” value was -3.27.
With A91U A97G the “polymerase ribozyme fitness (log ratio)” value was -3.67.
In the case of G92A C105A A147U, the “polymerase ribozyme fitness (log ratio)” value is reported as -4.16.
For A91C U139G, the “polymerase ribozyme fitness (log ratio)” value was at most -4.2.
For A91U C108U A113U C118U C149G, the “polymerase ribozyme fitness (log ratio)” value was at most -4.2.
With U90C C99U the “polymerase ribozyme fitness (log ratio)” value was at most -4.2.
In the case of G92C U111C, the “polymerase ribozyme fitness (log ratio)” value is reported as -3.45.
For C93U A97U, the “polymerase ribozyme fitness (log ratio)” value was -2.14.
In the case of C93U A97C, the “polymerase ribozyme fitness (log ratio)” value is reported as -0.557.
For C93A C125U, the “polymerase ribozyme fitness (log ratio)” value was -2.47.
For G92U C123A, the “polymerase ribozyme fitness (log ratio)” value was -0.758.
With U90G G140C the “polymerase ribozyme fitness (log ratio)” value was at most -4.2.
In the case of G92U C96A G136C, the “polymerase ribozyme fitness (log ratio)” value is reported as -3.56.
For C93G U101C, the “polymerase ribozyme fitness (log ratio)” value was -3.2.
With U90C C95A U102A C132A the “polymerase ribozyme fitness (log ratio)” value was at most -4.2.
For A91C C96A A120U A122C G143U, the “polymerase ribozyme fitness (log ratio)” value was -4.07.
For A91G U144G, the “polymerase ribozyme fitness (log ratio)” value was -2.02.
In the case of A91G U145G, the “polymerase ribozyme fitness (log ratio)” value is reported as -3.96.
For A91G U145A, the “polymerase ribozyme fitness (log ratio)” value was -3.07.
For C93A A98G, the “polymerase ribozyme fitness (log ratio)” value was -1.81.
For G92U G136C, the “polymerase ribozyme fitness (log ratio)” value was -3.44.
